Assay [1] concerns the target T1, SR344 (N-terminal 1st to 344th amino acids of soluble human IL-6R) (human, UniProt P08887 20-344, limits assumed).
T1 sequence (looked up): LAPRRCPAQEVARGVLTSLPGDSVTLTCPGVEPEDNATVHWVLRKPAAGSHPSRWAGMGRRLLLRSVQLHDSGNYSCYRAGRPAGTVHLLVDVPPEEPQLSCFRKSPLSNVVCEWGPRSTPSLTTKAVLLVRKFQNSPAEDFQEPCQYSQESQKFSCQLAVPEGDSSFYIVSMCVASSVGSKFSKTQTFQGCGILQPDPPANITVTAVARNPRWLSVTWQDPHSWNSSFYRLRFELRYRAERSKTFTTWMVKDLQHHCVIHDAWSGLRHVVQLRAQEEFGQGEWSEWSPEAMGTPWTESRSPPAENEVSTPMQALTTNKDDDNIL
As to the kind of experiment: cell-based or functional assay.

Assay [2] deals with T1, SR344 (N-terminal 1st to 344th amino …). The assay can be described thus: SPR (Biacore T100), Protein A/G capture, SR344 as analyte, 37 C.
Assay [3] has the same target. The assay can be described thus: SPR (Biacore T100), Protein A/G capture, SR344 at 0, 0.36 and 1.4 µg/ml, 15 min dissociation, 37 C. For orientation: Surface plasmon resonance follows binding to a sensor surface in real time, without labels.
Assay [4] concerns the target T2, recombinant human IL-6R sR (R&D systems) (human, UniProt P08887 20-358).
T2 construct: Bought soluble receptor; also called rhIL-6sR; rhIL-s6R
T2 sequence (looked up): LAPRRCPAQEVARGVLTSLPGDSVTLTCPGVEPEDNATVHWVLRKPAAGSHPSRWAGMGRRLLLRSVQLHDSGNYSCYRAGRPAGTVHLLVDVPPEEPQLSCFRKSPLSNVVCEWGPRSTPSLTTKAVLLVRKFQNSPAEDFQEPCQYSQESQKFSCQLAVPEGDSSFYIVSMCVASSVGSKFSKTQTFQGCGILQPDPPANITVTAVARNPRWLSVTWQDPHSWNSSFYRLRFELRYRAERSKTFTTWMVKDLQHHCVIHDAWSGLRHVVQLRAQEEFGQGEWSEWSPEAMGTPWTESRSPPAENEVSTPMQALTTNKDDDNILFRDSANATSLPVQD
As to the kind of experiment: SPR (Biacore T100), antibody captured on Protein A, rhIL-6sR as analyte, 25 C. On the procedure:
The antigen-antibody interaction was measured by immobilizing 4,400 to 5,000 RU of rec-Protein A (Zymed) immobilized onto a sensor chip by the amine coupling method, binding various antibodies onto the chip, and then flowing the antigen over the chip as an analyte. For the antigen, various concentrations of rhIL-6sR were used. All measurements were carried out at 25° C. The kinetic parameters, association rate constant kₐ (1/Ms) and dissociation rate constant kd (1/s) were calculated from the sensorgrams obtained by measurement. Then, KD (M) was determined based on the rate constants. The respective parameters were determined using Biacore T100 Evaluation Software (Biacore).

The target of assay [5] is T1, SR344 (N-terminal 1st to 344th amino …). The assay can be described thus: SPR (Biacore T100), antibody captured on Protein A/G, SR344 as analyte, 37 C. On the procedure:
This measurement was carried out under the same conditions described in Example 2. The running buffer used was HBS-EP+, and the flow rate was 20 μl/min. Each antibody was prepared so that about 100 RU of the antibody was bound to Protein A/G. SR344 was prepared at 0, 0.065, 0.131, and 0.261 μg/ml using HBS-EP+ and used as an analyte. In the first step of the measurement, the antibody in solution was bound to Protein A/G, and the analyte solution was allowed to interact therewith. After three minutes of interaction, the solution was switched to HBS-EP+, and the dissociation phase was monitored for 10 or 15 minutes. After measurement of the dissociation phase, the sensor chip was regenerated by washing with 10 μl of 10 mM glycine-HCl (pH 1.5). The association, dissociation, and regeneration constitute one analysis cycle. Each antibody was measured according to this cycle.
The sensorgram was kinetically analyzed using the Biacore-specific data analysis software, Biacore T100 Evaluation Software.

Assay [6] shares this target. The assay can be described thus: SPR (Biacore T100), antibody captured on Protein A/G, antigen as analyte, 37 C. On the procedure:
(§1) The antigen-antibody interaction was measured by immobilizing purified Recomb Protein A/G (Pierce) (hereinafter “Protein A/G”) onto a sensor chip, binding various antibodies onto the chip, and then flowing the antigen as an analyte over the chip. Various concentrations of rhIL-6sR (R&D systems) and recombinant soluble IL-6 receptor (SR344 prepared in Example 1) were used as the antigen. The sugar chain structure of rhIL-6sR produced by baculovirus-infected insect cells is of high-mannose type. On the other hand, the sugar chain structure of SR344 produced by CHO cells is assumed to be of the complex sugar chain type with sialic acid at its end. Since the sugar chain structure of soluble IL-6 receptor in an actual human body is assumed to be of the complex sugar chain type with sialic acid at its end, SR344 is expected to have a structure closer to that of soluble IL-6 receptor in the human body. Thus, a comparison test between rhIL-6sR and SR344 was carried out in this experiment.
(§2) A sensor chip was prepared by immobilizing about 3,000 RU of Protein A/G onto CM5 (Biacore) with the amine coupling method. […] The running buffer used was HBS-EP+, and the flow rate was 20 μl/min. Each antibody was prepared so that about 100 RU of the antibody was bound to Protein A/G. For the analyte, rhIL-6sR was prepared at 0, 0.156, 0.313, and 0.625 μg/ml using HBS-EP+, while SR344 was adjusted to 0, 0.0654, 0.131, and 0.261 μg/ml. […] After three minutes of interaction, the solution was switched with HBS-EP+ (Biacore), and the dissociation phase was monitored for ten minutes. After measurement of the dissociation phase, the sensor chip was regenerated by washing with 10 μl of 10 mM glycine-HCl (pH 1.5). The association, dissociation, and regeneration constituted one analytic cycle. All experiments were carried out at 37° C.

Assay [7] has as its target T2, recombinant human IL-6R sR (R&D systems). The description is as above. On the procedure:
as §1, §2

Assay [8] concerns the target T1, SR344 (N-terminal 1st to 344th amino …). Described as above. On the procedure: as §2
(§3) The obtained sensorgrams were kinetically analyzed using Biacore T100 Evaluation Software, which is a data analysis software specific for Biacore (Table 3). […] All measurements described hereinafter in the Examples were carried out at 37° C. to kinetically analyze the antigen-antibody reaction using SR344 and protein A/G.
The source holds these as a separate data set.

The target of assay [9] is T2, recombinant human IL-6R sR (R&D systems). Described as above. As for the experimental part: as §2, §3
The source holds these as a separate data set.

We go through 2 molecules from patent US20150284465A1 (Chugai, published 2015).

B1: F2H/L39-IgG1 (antibody, V domains shown)
VH: QVQLQESGPGLVKPSETLSLTCAVSGYSISDDHAWSWVRQPPGEGLEWIGYISYSGITNYNPSLQDRVTISRDNSKNTLYLQMNSLRAEDTAVYYCARLLARATAMDYWGQGILVTVSS
VL: DIQMTQSPSSLSASVGDSVTITCQASEDISSYLNWYQQKPGKAPELLIYYGSELESGVPSRFSGSGSGTDFTFTISSLEAEDAATYYCGQGNRLPYTFGQGTKVEIER
One may read the Kd as the concentration at which binding is half-saturated. What is called koff is the rate constant with which the complex falls apart. As usually defined, the kon is the rate constant with which the complex forms. On to B1, for which, in [1], the “BaF3/gp130 neutralizing activity, 100% inhibitory concentration against WT” value was not below 100 fold. Further, the “ka relative to PF1-IgG1” value in [2] is approximately 0.5 fold. In [3], this molecule gave a Kd of 0.052 nM, a koff of 4e-05 s⁻¹ and a kon of 770000 M⁻¹ s⁻¹.

B2: RDC-23 (antibody, V domains shown)
VH: QVQLQESGPGLVRPSQTLSLTCTVSGYSITSDHAWSWVRQPPGRGLEWIGYISYSGITTYNPSLKSRVTMLRDTSKNQFSLRLSSVTAADTAVYYCARVLARITAMDYWGQGSLVTVSS
VL: DIQMTQSPSSLSASVGDRVTITCRASQDISSYLNWYQQKPGKAPKLLIYYTSRLHSGVPSRFSGSGSGTDFTFTISSLQPEDIATYYCGQGNRLPYTFGQGTKVEIK
notes: also called RDC-5H/RDC-11L
Consider B2, for which, in [1], the “BaF3/gp130 neutralizing activity, 100% inhibitory concentration against WT” value was approximately 100 fold. The Kd in assay [4] is 0.025 nM; in assay [5], 0.067 nM; in assay [6] it was 0.067 nM; in assay [7] it was 0.028 nM. For the same molecule, the koff in assay [4] came out at 3.1e-05 s⁻¹; in assay [5] it was 4.3e-05 s⁻¹; in assay [6], 4.3e-05 s⁻¹; in assay [7], 4.5e-05 s⁻¹. The kon in assay [4] is 1.2e+06 M⁻¹ s⁻¹; in assay [5] it was 640000 M⁻¹ s⁻¹; in assay [6], 640000 M⁻¹ s⁻¹; in assay [7], 1.6e+06 M⁻¹ s⁻¹. Further, the “fold improved affinity against WT” value in [8] and in assay [9] was 40 to 60 fold throughout.
